Here are results for six molecules from patent US20260015399A1 (Boehringer Ingelheim, published 2026).

*1 amine or outer side, *2 acyl side, *3 side chain or, on linkers, in order; H or OH if unused. Side-chain parts run from the residue outwards. The star is where a group is joined. C18 diacid = O=C(O)CCCCCCCCCCCCCCCCC(=O)*; γGlu = O=C(O)[C@H](CCC(=O)[*:2])N[*:1]; Isovaleryl = CC(C)CC(=O)*; Ahx = NCCCCCC(=O)O

This experiment addresses T1, human NPY2 receptor (human, UniProt P49146 1-381).
T1 construct: whole, on cells; also called hNPY2-R; hNPY2R
T1 sequence (looked up): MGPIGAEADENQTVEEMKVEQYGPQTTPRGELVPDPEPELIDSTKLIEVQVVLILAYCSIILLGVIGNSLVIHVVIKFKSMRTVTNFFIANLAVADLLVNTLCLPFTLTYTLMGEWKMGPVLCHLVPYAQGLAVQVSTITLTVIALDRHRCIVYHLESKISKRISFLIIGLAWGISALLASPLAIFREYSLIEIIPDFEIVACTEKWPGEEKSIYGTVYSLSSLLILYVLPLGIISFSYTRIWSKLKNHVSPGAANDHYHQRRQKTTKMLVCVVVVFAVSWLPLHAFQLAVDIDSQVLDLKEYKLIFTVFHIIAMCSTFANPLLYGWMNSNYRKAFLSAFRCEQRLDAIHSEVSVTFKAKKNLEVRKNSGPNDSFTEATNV
Kind of experiment: RLB: displacement of 125I-PYY(1-36) from hNPY2R membranes. (In a radioligand displacement assay an active substance lowers the binding of a labelled ligand.)

B1: Compound 169 (peptide)
peptide: Isovaleryl-APEK([Ahx-γGlu-C18 diacid])PEEDAEPEELQAYYVSLRHYYNWLTRQRY-NH2
SMILES: CC(C)CC(=O)N[C@@H](C)C(=O)N1CCC[C@H]1C(=O)N[C@@H](CCC(=O)O)C(=O)N[C@@H](CCCCNC(=O)CCCCCNC(=O)CC[C@H](NC(=O)CCCCCCCCCCCCCCCCC(=O)O)C(=O)O)C(=O)N1CCC[C@H]1C(=O)N[C@@H](CCC(=O)O)C(=O)N[C@@H](CCC(=O)O)C(=O)N[C@@H](CC(=O)O)C(=O)N[C@@H](C)C(=O)N[C@@H](CCC(=O)O)C(=O)N1CCC[C@H]1C(=O)N[C@@H](CCC(=O)O)C(=O)N[C@@H](CCC(=O)O)C(=O)N[C@@H](CC(C)C)C(=O)N[C@@H](CCC(N)=O)C(=O)N[C@@H](C)C(=O)N[C@@H](Cc1ccc(O)cc1)C(=O)N[C@@H](Cc1ccc(O)cc1)C(=O)N[C@H](C(=O)N[C@@H](CO)C(=O)N[C@@H](CC(C)C)C(=O)N[C@@H](CCCNC(=N)N)C(=O)N[C@@H](Cc1c[nH]cn1)C(=O)N[C@@H](Cc1ccc(O)cc1)C(=O)N[C@@H](Cc1ccc(O)cc1)C(=O)N[C@@H](CC(N)=O)C(=O)N[C@@H](Cc1c[nH]c2ccccc12)C(=O)N[C@@H](CC(C)C)C(=O)N[C@H](C(=O)N[C@@H](CCCNC(=N)N)C(=O)N[C@@H](CCC(N)=O)C(=O)N[C@@H](CCCNC(=N)N)C(=O)N[C@@H](Cc1ccc(O)cc1)C(N)=O)[C@@H](C)O)C(C)C
What is called Ki is the dissociation constant of the complex between target and ligand, obtained from inhibition or displacement. Higher therefore signals a looser hold on the target. In turn, B1 yielded a Ki of 5.82 nM. This lies in the single-digit nanomolar range.

B2: Compound 177 (peptide)
peptide: Isovaleryl-APEK([Ahx-γGlu-C18 diacid])PEEDATPEELQQYYVSLRHYYNWLTRQRY-NH2
SMILES: CC(C)CC(=O)N[C@@H](C)C(=O)N1CCC[C@H]1C(=O)N[C@@H](CCC(=O)O)C(=O)N[C@@H](CCCCNC(=O)CCCCCNC(=O)CC[C@H](NC(=O)CCCCCCCCCCCCCCCCC(=O)O)C(=O)O)C(=O)N1CCC[C@H]1C(=O)N[C@@H](CCC(=O)O)C(=O)N[C@@H](CCC(=O)O)C(=O)N[C@@H](CC(=O)O)C(=O)N[C@@H](C)C(=O)N[C@H](C(=O)N1CCC[C@H]1C(=O)N[C@@H](CCC(=O)O)C(=O)N[C@@H](CCC(=O)O)C(=O)N[C@@H](CC(C)C)C(=O)N[C@@H](CCC(N)=O)C(=O)N[C@@H](CCC(N)=O)C(=O)N[C@@H](Cc1ccc(O)cc1)C(=O)N[C@@H](Cc1ccc(O)cc1)C(=O)N[C@H](C(=O)N[C@@H](CO)C(=O)N[C@@H](CC(C)C)C(=O)N[C@@H](CCCNC(=N)N)C(=O)N[C@@H](Cc1c[nH]cn1)C(=O)N[C@@H](Cc1ccc(O)cc1)C(=O)N[C@@H](Cc1ccc(O)cc1)C(=O)N[C@@H](CC(N)=O)C(=O)N[C@@H](Cc1c[nH]c2ccccc12)C(=O)N[C@@H](CC(C)C)C(=O)N[C@H](C(=O)N[C@@H](CCCNC(=N)N)C(=O)N[C@@H](CCC(N)=O)C(=O)N[C@@H](CCCNC(=N)N)C(=O)N[C@@H](Cc1ccc(O)cc1)C(N)=O)[C@@H](C)O)C(C)C)[C@@H](C)O
In turn, B2 returned an inhibition constant (Ki) of 8.65 nM.

B3: Compound 171 (peptide)
peptide: Isovaleryl-APEK([Ahx-γGlu-C18 diacid])PEADASPEELQRYYVELRHYYNWLTRQRY-NH2
SMILES: CC(C)CC(=O)N[C@@H](C)C(=O)N1CCC[C@H]1C(=O)N[C@@H](CCC(=O)O)C(=O)N[C@@H](CCCCNC(=O)CCCCCNC(=O)CC[C@H](NC(=O)CCCCCCCCCCCCCCCCC(=O)O)C(=O)O)C(=O)N1CCC[C@H]1C(=O)N[C@@H](CCC(=O)O)C(=O)N[C@@H](C)C(=O)N[C@@H](CC(=O)O)C(=O)N[C@@H](C)C(=O)N[C@@H](CO)C(=O)N1CCC[C@H]1C(=O)N[C@@H](CCC(=O)O)C(=O)N[C@@H](CCC(=O)O)C(=O)N[C@@H](CC(C)C)C(=O)N[C@@H](CCC(N)=O)C(=O)N[C@@H](CCCNC(=N)N)C(=O)N[C@@H](Cc1ccc(O)cc1)C(=O)N[C@@H](Cc1ccc(O)cc1)C(=O)N[C@H](C(=O)N[C@@H](CCC(=O)O)C(=O)N[C@@H](CC(C)C)C(=O)N[C@@H](CCCNC(=N)N)C(=O)N[C@@H](Cc1c[nH]cn1)C(=O)N[C@@H](Cc1ccc(O)cc1)C(=O)N[C@@H](Cc1ccc(O)cc1)C(=O)N[C@@H](CC(N)=O)C(=O)N[C@@H](Cc1c[nH]c2ccccc12)C(=O)N[C@@H](CC(C)C)C(=O)N[C@H](C(=O)N[C@@H](CCCNC(=N)N)C(=O)N[C@@H](CCC(N)=O)C(=O)N[C@@H](CCCNC(=N)N)C(=O)N[C@@H](Cc1ccc(O)cc1)C(N)=O)[C@@H](C)O)C(C)C
Take B3: the affinity corresponds to a Ki of 2.83 nM.

B4: Compound 179 (peptide)
peptide: Isovaleryl-APEK([Ahx-γGlu-C18 diacid])PEADASPEETQRYYVALRHYYNWLTRQRY-NH2
SMILES: CC(C)CC(=O)N[C@@H](C)C(=O)N1CCC[C@H]1C(=O)N[C@@H](CCC(=O)O)C(=O)N[C@@H](CCCCNC(=O)CCCCCNC(=O)CC[C@H](NC(=O)CCCCCCCCCCCCCCCCC(=O)O)C(=O)O)C(=O)N1CCC[C@H]1C(=O)N[C@@H](CCC(=O)O)C(=O)N[C@@H](C)C(=O)N[C@@H](CC(=O)O)C(=O)N[C@@H](C)C(=O)N[C@@H](CO)C(=O)N1CCC[C@H]1C(=O)N[C@@H](CCC(=O)O)C(=O)N[C@@H](CCC(=O)O)C(=O)N[C@H](C(=O)N[C@@H](CCC(N)=O)C(=O)N[C@@H](CCCNC(=N)N)C(=O)N[C@@H](Cc1ccc(O)cc1)C(=O)N[C@@H](Cc1ccc(O)cc1)C(=O)N[C@H](C(=O)N[C@@H](C)C(=O)N[C@@H](CC(C)C)C(=O)N[C@@H](CCCNC(=N)N)C(=O)N[C@@H](Cc1c[nH]cn1)C(=O)N[C@@H](Cc1ccc(O)cc1)C(=O)N[C@@H](Cc1ccc(O)cc1)C(=O)N[C@@H](CC(N)=O)C(=O)N[C@@H](Cc1c[nH]c2ccccc12)C(=O)N[C@@H](CC(C)C)C(=O)N[C@H](C(=O)N[C@@H](CCCNC(=N)N)C(=O)N[C@@H](CCC(N)=O)C(=O)N[C@@H](CCCNC(=N)N)C(=O)N[C@@H](Cc1ccc(O)cc1)C(N)=O)[C@@H](C)O)C(C)C)[C@@H](C)O
B4 had a Ki of 0.89 nM.

B5: Compound 170 (peptide)
peptide: Isovaleryl-APEK([Ahx-γGlu-C18 diacid])PEEDAAPEEIQRYYVSLRHYYNWLTRQRY-NH2
SMILES: CC[C@H](C)[C@H](NC(=O)[C@H](CCC(=O)O)NC(=O)[C@H](CCC(=O)O)NC(=O)[C@@H]1CCCN1C(=O)[C@H](C)NC(=O)[C@H](C)NC(=O)[C@H](CC(=O)O)NC(=O)[C@H](CCC(=O)O)NC(=O)[C@H](CCC(=O)O)NC(=O)[C@@H]1CCCN1C(=O)[C@H](CCCCNC(=O)CCCCCNC(=O)CC[C@H](NC(=O)CCCCCCCCCCCCCCCCC(=O)O)C(=O)O)NC(=O)[C@H](CCC(=O)O)NC(=O)[C@@H]1CCCN1C(=O)[C@H](C)NC(=O)CC(C)C)C(=O)N[C@@H](CCC(N)=O)C(=O)N[C@@H](CCCNC(=N)N)C(=O)N[C@@H](Cc1ccc(O)cc1)C(=O)N[C@@H](Cc1ccc(O)cc1)C(=O)N[C@H](C(=O)N[C@@H](CO)C(=O)N[C@@H](CC(C)C)C(=O)N[C@@H](CCCNC(=N)N)C(=O)N[C@@H](Cc1c[nH]cn1)C(=O)N[C@@H](Cc1ccc(O)cc1)C(=O)N[C@@H](Cc1ccc(O)cc1)C(=O)N[C@@H](CC(N)=O)C(=O)N[C@@H](Cc1c[nH]c2ccccc12)C(=O)N[C@@H](CC(C)C)C(=O)N[C@H](C(=O)N[C@@H](CCCNC(=N)N)C(=O)N[C@@H](CCC(N)=O)C(=O)N[C@@H](CCCNC(=N)N)C(=O)N[C@@H](Cc1ccc(O)cc1)C(N)=O)[C@@H](C)O)C(C)C
In turn, B5 had an inhibition constant (Ki) of 2.28 nM. Against the preceding molecule, the Ki is about 2.6-fold higher.

B6: Compound 178 (peptide)
peptide: Isovaleryl-APEK([Ahx-γGlu-C18 diacid])PEAAATPEEIQRYYVALRHYYNWLTRQRY-NH2
SMILES: CC[C@H](C)[C@H](NC(=O)[C@H](CCC(=O)O)NC(=O)[C@H](CCC(=O)O)NC(=O)[C@@H]1CCCN1C(=O)[C@@H](NC(=O)[C@H](C)NC(=O)[C@H](C)NC(=O)[C@H](C)NC(=O)[C@H](CCC(=O)O)NC(=O)[C@@H]1CCCN1C(=O)[C@H](CCCCNC(=O)CCCCCNC(=O)CC[C@H](NC(=O)CCCCCCCCCCCCCCCCC(=O)O)C(=O)O)NC(=O)[C@H](CCC(=O)O)NC(=O)[C@@H]1CCCN1C(=O)[C@H](C)NC(=O)CC(C)C)[C@@H](C)O)C(=O)N[C@@H](CCC(N)=O)C(=O)N[C@@H](CCCNC(=N)N)C(=O)N[C@@H](Cc1ccc(O)cc1)C(=O)N[C@@H](Cc1ccc(O)cc1)C(=O)N[C@H](C(=O)N[C@@H](C)C(=O)N[C@@H](CC(C)C)C(=O)N[C@@H](CCCNC(=N)N)C(=O)N[C@@H](Cc1c[nH]cn1)C(=O)N[C@@H](Cc1ccc(O)cc1)C(=O)N[C@@H](Cc1ccc(O)cc1)C(=O)N[C@@H](CC(N)=O)C(=O)N[C@@H](Cc1c[nH]c2ccccc12)C(=O)N[C@@H](CC(C)C)C(=O)N[C@H](C(=O)N[C@@H](CCCNC(=N)N)C(=O)N[C@@H](CCC(N)=O)C(=O)N[C@@H](CCCNC(=N)N)C(=O)N[C@@H](Cc1ccc(O)cc1)C(N)=O)[C@@H](C)O)C(C)C
In turn, B6 displayed a Ki of 3.39 nM.
